The source of these data is US20220275089A1 (AKESO PHARMACEUTICALS, published 2022).

Assay [1] has as its target T1, C1q (UniProt P02745 23-245; P02746 28-253; P02747 29-245).
T1 construct: also called serum complement C1q; complement C1q
Kind of assay: BLI (Fortebio Octet), antibody on FAB2G sensor, C1q 1.25-20 nM, 1:1 fit. The method, then: (§1) 50 μg/mL antibody was immobilized on the FAB2G sensor at an immobilization height of about […]. […] The antigen and antibody were dissociated in the buffer for 60 s. The sensor was refreshed 4 times in 10 mM glycine pH 1.7, each for 5 s. The shaking speed of the sample plate was 1000 rpm, the temperature was 30° C. and the frequency was 0.6 Hz. The data were analyzed by 1:1 model fitting to obtain affinity constants. The data acquisition software was Fortebio Data Acquisition 7.0, and the data analysis software was Fortebio Data Analysis 7.0.
A general note: In BLI a coated tip is dipped into the sample, and binding shifts an interference pattern.

The target of assay [2] is T2, FcγRI (UniProt P12314 16-288, limits assumed).
T2 construct: construct not described; also called CD64; FcγR1
T2 sequence (P12314 16-288 limits assumed): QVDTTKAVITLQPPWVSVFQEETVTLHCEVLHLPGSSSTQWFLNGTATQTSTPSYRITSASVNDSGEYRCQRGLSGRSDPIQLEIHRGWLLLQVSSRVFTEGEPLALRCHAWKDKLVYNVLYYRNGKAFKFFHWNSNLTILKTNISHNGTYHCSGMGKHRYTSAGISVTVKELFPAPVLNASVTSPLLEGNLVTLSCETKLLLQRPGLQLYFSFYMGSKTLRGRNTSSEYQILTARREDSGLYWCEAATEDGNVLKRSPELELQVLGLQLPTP
Kind of assay: BLI (Fortebio Octet), FcγRI on HIS1K sensor, antibody 3.12-50 nM, 1:1 fit. The method, then:
(§2) A 1 μg/mL FcγRI solution (from Sinobio) was added to the HIS1K sensor to immobilize the FcγRI on the sensor surface for 50 s. […] The sensor with immobilized antigen was equilibrated in the buffer for 60 s, and then the binding of the immobilized FcγRI on the sensor to the antibodies was determined for 120 s; the dissociation of FcγRI from the antibodies was determined in 120 s. The temperature was 30° C. and the frequency was 0.3 Hz. The data were fitted and analyzed with a 1:1 model to obtain the affinity constants to FcγRI for the antibodies.

In assay [3] the target is T3, FcγRIIb (UniProt P31994 43-217, limits assumed).
T3 construct: also called CD32b
T3 sequence (looked up): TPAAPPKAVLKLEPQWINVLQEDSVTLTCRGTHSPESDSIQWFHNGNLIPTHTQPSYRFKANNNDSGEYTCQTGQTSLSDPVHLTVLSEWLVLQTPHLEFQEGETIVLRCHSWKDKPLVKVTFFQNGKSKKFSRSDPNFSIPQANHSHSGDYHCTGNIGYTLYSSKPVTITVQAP
The experiment in a line: BLI (Fortebio Octet), FcγRIIb on NTA sensor, antibody 12.5-200 nM, 1:1 fit. The method, then: (§3) 5 μg/mL FcγRIIb was immobilized on the NTA sensor at an immobilization height of about 1.0 nm. […] The antibody was dissociated in the buffer for 60 s. The sensor was refreshed in 10 mM glycine pH 1.7 and 10 nM nickel sulfate. The temperature was 30° C. and the frequency was 0.6 Hz. The data were analyzed by 1:1 model fitting to obtain affinity constants.

Assay [4] deals with T1, C1q. The experiment in a line: BLI (Fortebio Octet), antibody immobilized on FAB2G sensor, C1q in solution at 1.25-20 nM. The method, then: as §1
Assay [5] has as its target T2, FcγRI. The experiment in a line: BLI (Fortebio Octet), FcγRI immobilized on HIS1K sensor, antibody in solution at 3.12-50 nM. The method, then: as §2
In assay [6] the target is T3, FcγRIIb. The experiment in a line: BLI (Fortebio Octet), FcγRIIb immobilized on NTA sensor, antibody in solution at 12.5-200 nM. How it is done: as §3
The target of the next assay is T4, FcγRIIa_H131 (UniProt P12318 34-218).
T4 construct: H131 polymorphic form
T4 sequence (looked up): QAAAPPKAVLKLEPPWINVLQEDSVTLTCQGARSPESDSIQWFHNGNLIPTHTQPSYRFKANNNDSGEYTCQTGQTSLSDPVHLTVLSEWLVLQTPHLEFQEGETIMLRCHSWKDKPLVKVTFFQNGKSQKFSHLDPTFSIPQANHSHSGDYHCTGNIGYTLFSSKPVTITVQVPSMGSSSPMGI
Kind of assay: BLI (Fortebio Octet), FcγRIIa_H131 immobilized on NTA sensor, antibody in solution at 12.5-200 nM. The method, then:
5 μg/mL FcγRIIa_H131 was immobilized on the NTA sensor at an immobilization height of about 1.0 nm. […] The antibody was dissociated in the buffer for 60 s. The sensor was refreshed in 10 mM glycine pH 1.7 and […] nickel sulfate. The temperature was 30° C. and the frequency was 0.6 Hz. The data were analyzed by 1:1 model fitting to obtain affinity constants.

For another assay, the target named is T5, FcγRIIIa_V158 (UniProt P08637 17-208).
T5 construct: V158 polymorphic form (mature numbering)
T5 sequence (P08637 17-208 F176V limits assumed): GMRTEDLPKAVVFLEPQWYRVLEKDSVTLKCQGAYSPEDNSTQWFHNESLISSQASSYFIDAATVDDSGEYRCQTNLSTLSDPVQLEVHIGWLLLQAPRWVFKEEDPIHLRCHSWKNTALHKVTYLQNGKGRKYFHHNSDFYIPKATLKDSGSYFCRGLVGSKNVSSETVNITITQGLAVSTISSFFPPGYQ
Kind of assay: BLI (Fortebio Octet), FcγRIIIa_V158 immobilized on HIS1K sensor, antibody in solution at 31.25-500 nM. The method, then:
5 μg/mL FcγRIIIa_V158 was immobilized on the HIS1K sensor for 120 s. […] The antibody was dissociated in the buffer for 60 s. The sensor was refreshed 4 times in 10 mM glycine pH 1.5, each for 5 s. The temperature was 30° C. and the frequency was 0.3 Hz. The data were analyzed by 1:1 model fitting to obtain affinity constants.

A further assay deals with T6, FcγRIIIa_F158 (UniProt P08637 17-208).
T6 construct: F158 polymorphic form
T6 sequence (P08637 17-208 limits assumed): as the sequence (P08637 17-208 F176V limits assumed) above, with V160F counted along it
Kind of assay: BLI (Fortebio Octet), FcγRIIIa_F158 immobilized on HIS1K sensor, antibody in solution at 31.25-500 nM. How it is done: 5 μg/mL FcγRIIIa_F158 was immobilized on the HIS1K sensor for 120 s. […] The antibody was dissociated in the buffer for 60 s. The sensor was refreshed 4 times in 10 mM glycine pH 1.5, each for 5 s. The temperature was 30° C. and the frequency was 0.3 Hz. The data were analyzed by 1:1 model fitting to obtain affinity constants.

T1 sequence (P02745 23-245 limits assumed, chain 1 of 3): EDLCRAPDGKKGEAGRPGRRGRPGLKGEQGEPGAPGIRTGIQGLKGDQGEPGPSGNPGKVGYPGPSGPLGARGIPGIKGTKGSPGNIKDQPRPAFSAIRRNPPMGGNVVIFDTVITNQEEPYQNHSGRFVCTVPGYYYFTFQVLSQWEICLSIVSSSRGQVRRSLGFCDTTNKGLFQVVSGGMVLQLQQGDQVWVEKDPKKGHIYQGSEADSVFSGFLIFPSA
T1 sequence (P02746 28-253 limits assumed, chain 2 of 3): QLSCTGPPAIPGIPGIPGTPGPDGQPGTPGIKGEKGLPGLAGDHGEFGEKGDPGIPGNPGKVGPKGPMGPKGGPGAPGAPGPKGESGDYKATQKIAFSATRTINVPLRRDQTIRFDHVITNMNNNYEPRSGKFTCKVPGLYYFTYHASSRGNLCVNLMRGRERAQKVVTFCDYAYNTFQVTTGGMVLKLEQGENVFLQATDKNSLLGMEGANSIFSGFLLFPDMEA
T1 sequence (P02747 29-245 limits assumed, chain 3 of 3): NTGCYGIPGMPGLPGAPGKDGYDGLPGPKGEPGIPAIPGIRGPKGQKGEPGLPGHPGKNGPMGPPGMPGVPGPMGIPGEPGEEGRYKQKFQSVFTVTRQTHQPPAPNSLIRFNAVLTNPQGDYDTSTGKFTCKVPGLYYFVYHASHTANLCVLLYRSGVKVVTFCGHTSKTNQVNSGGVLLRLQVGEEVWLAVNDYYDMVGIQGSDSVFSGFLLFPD

B1: 5C10H2L2-IgG1mt (antibody)
chain 1: not shown
chain 2: EIVLTQSPDTLSVTPKEKVTLTCRASQSIGTNIHWFQQKPGQSPKLLIKYASESISGVPSRFSGSGSGTDFTLTINSVEAEDAATYYCQQSNSWPYTFGQGTKLEIKRTVAAPSVFIFPPSDEQLKSGTASVVCLLNNFYPREAKVQWKVDNALQSGNSQESVTEQDSKDSTYSLSSTLTLSKADYEKHKVYACEVTHQGLSSPVTKSFNRGEC
Take B1: in the assay with C1q [1], the affinity, expressed as Kd, was 4.43 nM; the koff (in general, a measure of how fast the partners let go of each other) stood at 0.0105 s⁻¹; the on-rate (kon) (in general, a measure of how fast the partners come together) worked out at 2.38e+06 M⁻¹ s⁻¹.

B2: BiAb004(hG1WT) (bispecific antibody, human IgG1, kappa)
heavy: not shown
light: DIQMTQSPSSMSASVGDRVTFTCRASQDINTYLSWFQQKPGKSPKTLIYRANRLVSGVPSRFSGSGSGQDYTLTISSLQPEDMATYYCLQYDEFPLTFGAGTKLELKRTVAAPSVFIFPPSDEQLKSGTASVVCLLNNFYPREAKVQWKVDNALQSGNSQESVTEQDSKDSTYSLSSTLTLSKADYEKHKVYACEVTHQGLSSPVTKSFNRGEC
notes: IgG-scFv (Morrison format); also called BiAb004(M); BiAh004(M)
For B2, the equilibrium dissociation constant (Kd) (usually the constant that tells how readily two partners part at equilibrium) in the assay with C1q [1] was determined as 2.53 nM; in the assay with FcγRI [2], 5.92 nM; with FcγRIIb [3], 56.1 nM.

B3: BiAb004(hG1TM) (bispecific antibody, human IgG1, kappa)
heavy: not shown
light: B2 light
notes: IgG-scFv (Morrison format), anti-PD-1 IgG1 with an anti-CTLA4 scFv on the C terminus of each heavy chain
B3: the binding result is listed as “no binding (tested: 20 nM)” with C1q [4]; “no binding (tested: 50 nM)” in the assay with FcγRI [5]; “no binding (tested: 200 nM)” in the assay with FcγRIIb [6]; “no binding (tested: 200 nM)” with FcγRIIa_H131; “no binding (tested: 500 nM)” with FcγRIIIa_V158; “no binding (tested: 500 nM)” with FcγRIIIa_F158.
